Assays:
[1] = biological target: T1, human MDM2, full length (CMV driven expression construct pCHDM1A) (human, UniProt Q00987 1-491); assay: low stringency co-immunoprecipitation (anti-FLAG IP, anti-MDM2 Western blot), 293T cells transfected with MDM2 and p19FLAG
T1 construct: Expressed in transfected cells; also called HDM-2
Experimental: (§1) For immunoprecipitations, subconfluent 293T cells were transfected with 3 µg each of the appropriate expression constructs shown in FIG. 3, and 80 µg of Lipofectamine reagent (Gibco BRL). […] Untransfected 3T3-DM cells were lysed in a low stringency buffer as above.

[2] = biological target: T2, endogenous MDM2 of untransfected 3T3DM cells (UniProt P23804 1-489); assay: anti-p19^ARF immunoprecipitation, anti-MDM2 Western blot, untransfected 3T3DM cells
T2 construct: 3T3DM is a mouse cell line; Detected with antibody 2A10; also called p90/p85
Experimental: as §1

T1 sequence (Q00987 whole entry): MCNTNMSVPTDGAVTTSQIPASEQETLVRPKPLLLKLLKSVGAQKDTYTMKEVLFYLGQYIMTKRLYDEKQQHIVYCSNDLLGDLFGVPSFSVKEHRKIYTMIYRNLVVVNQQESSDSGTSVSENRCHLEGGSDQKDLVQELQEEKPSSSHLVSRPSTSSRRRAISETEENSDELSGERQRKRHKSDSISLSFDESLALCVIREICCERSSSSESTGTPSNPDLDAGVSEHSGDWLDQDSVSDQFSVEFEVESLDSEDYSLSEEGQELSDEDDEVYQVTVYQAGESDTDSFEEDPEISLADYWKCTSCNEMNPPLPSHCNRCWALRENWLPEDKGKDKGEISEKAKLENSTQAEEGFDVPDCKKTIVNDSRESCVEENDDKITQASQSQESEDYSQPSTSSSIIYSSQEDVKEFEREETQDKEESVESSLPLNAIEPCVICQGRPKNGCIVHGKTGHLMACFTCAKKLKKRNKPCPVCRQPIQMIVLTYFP
T2 sequence (P23804 whole entry): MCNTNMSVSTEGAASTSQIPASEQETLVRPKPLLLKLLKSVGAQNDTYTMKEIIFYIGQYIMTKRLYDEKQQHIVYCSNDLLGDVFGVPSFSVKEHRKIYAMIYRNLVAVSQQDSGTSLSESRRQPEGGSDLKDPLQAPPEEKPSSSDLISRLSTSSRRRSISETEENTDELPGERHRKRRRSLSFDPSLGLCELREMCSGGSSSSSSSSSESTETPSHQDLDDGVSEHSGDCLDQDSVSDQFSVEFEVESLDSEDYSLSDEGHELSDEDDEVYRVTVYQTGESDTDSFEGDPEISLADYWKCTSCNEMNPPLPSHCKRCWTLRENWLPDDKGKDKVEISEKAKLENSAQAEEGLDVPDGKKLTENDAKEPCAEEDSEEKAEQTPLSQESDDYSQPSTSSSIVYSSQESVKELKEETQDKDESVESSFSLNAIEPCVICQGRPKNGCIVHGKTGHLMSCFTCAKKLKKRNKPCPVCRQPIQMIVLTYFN

B1: FLAG epitope-tagged p19^ARF protein (other, mouse, UniProt Q64364 1-169, looked up, not shown: small tags and cut ends)
chain: MGRRFLVTVRIQRAGRPLQERVFLVKFVRSRRPRTASCALAFVNMLLRLERILRRGPHRNPGPGDDDGQRSRSSSSAQLRCRFELRGPHYLLPPGARRSAGRLPGHAGGAARVRGSAGCARCLGSPAARLGPRAGTSRHRAIFAFRWVLFVFRWVVFVYRWERRPDRRA
notes: Expressed from pcDNA in transfected 293T, SAOS2 or HeLa cells; also called p19^FLAG; p19FLAG
binding result [1]: binds

B2: endogenous p19^ARF of untransfected 3T3DM cells (other, UniProt Q64364 1-169, looked up)
chain: B1 chain
notes: Immunoprecipitated with rabbit polyclonal anti-p19^ARF antiserum
binding result [2]: binds

— patent US6897197 (ALBERT EINSTEIN COLLEGE OF MEDICINE OF YESHIVA UNIVERSITY, dated 2005)
